Source: article PMC11965522

Key:
Mre11;Rad50NBD [1] = target: T1, Mre11;Rad50NBD (Pyrococcus furiosus;Pyrococcus furiosus, UniProt Q8U1N9;P58301;P58301 1-426;1-195;709-882, |); experiment: NMR PRE
Mre11;Rad50NBD [2] = target: T1, Mre11;Rad50NBD; experiment: NMR CSP titration
Mre11;Rad50 S115E/S116E = Mre11;Rad50 S115E/S116E (Pyrococcus furiosus;Pyrococcus furiosus, UniProt Q8U1N9;P58301 1-426;1-882, |S115E;S116E); experiment: fluorescence polarization
Mre11;Rad50 R833E/R834E = Mre11;Rad50 R833E/R834E (Pyrococcus furiosus;Pyrococcus furiosus, UniProt Q8U1N9;P58301 1-426;1-882, |R833E;R834E); experiment: fluorescence polarization
Chain of Mre11;Rad50 R833E/R834E (P58301 whole entry R833E/R834E, one chain of several): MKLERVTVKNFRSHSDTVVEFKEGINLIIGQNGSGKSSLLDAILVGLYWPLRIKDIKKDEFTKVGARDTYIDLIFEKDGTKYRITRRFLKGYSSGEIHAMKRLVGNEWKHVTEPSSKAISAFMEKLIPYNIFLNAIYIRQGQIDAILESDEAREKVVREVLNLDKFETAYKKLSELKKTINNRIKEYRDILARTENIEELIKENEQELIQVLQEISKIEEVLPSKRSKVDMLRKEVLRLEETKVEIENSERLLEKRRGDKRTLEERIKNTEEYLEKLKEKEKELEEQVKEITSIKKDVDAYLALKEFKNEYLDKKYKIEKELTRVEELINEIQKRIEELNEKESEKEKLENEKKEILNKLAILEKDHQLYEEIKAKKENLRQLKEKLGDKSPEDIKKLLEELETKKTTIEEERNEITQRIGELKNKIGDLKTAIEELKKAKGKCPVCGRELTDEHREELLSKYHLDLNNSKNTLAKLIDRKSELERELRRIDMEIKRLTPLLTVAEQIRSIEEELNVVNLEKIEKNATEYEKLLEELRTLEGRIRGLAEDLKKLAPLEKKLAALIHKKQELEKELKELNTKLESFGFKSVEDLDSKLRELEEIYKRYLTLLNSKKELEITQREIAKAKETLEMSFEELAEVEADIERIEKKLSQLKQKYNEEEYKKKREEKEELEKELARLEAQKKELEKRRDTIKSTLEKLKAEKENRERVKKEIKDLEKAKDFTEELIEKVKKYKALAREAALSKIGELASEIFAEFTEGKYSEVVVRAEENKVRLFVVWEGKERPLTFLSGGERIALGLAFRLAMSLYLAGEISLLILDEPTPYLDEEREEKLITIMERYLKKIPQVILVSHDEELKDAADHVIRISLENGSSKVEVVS

[3] = target: Mre11 K144E;Rad50 full-length (Pyrococcus furiosus;Pyrococcus furiosus, UniProt Q8U1N9;P58301 1-426;1-882, K144E|); experiment: fluorescence polarization
Chain of Mre11 K144E;Rad50 full-length (P58301 whole entry, stated change not applied, one chain of several): as the sequence (P58301 whole entry R833E/R834E, one chain of several) above, with E833R, E834R counted along it

[4] = target: Mre11 K111E;Rad50 full-length (Pyrococcus furiosus;Pyrococcus furiosus, UniProt Q8U1N9;P58301 1-426;1-882, K111E|); experiment: fluorescence polarization
Chain of Mre11 K111E;Rad50 full-length (P58301 whole entry, stated change not applied, one chain of several): as the sequence (P58301 whole entry R833E/R834E, one chain of several) above, with E833R, E834R counted along it

[5] = target: Mre11 K365E;Rad50 full-length (Pyrococcus furiosus;Pyrococcus furiosus, UniProt Q8U1N9;P58301 1-426;1-882, K365E|); experiment: fluorescence polarization
Chain of Mre11 K365E;Rad50 full-length (P58301 whole entry K365E, one chain of several): as the sequence (P58301 whole entry R833E/R834E, one chain of several) above, with K365E, E833R, E834R counted along it

Mre11;Rad50 R868E = Mre11;Rad50 R868E (Pyrococcus furiosus;Pyrococcus furiosus, UniProt Q8U1N9;P58301 1-426;1-882, |R868E); experiment: fluorescence polarization
Chain of Mre11;Rad50 R868E (P58301 whole entry R868E, one chain of several): as the sequence (P58301 whole entry R833E/R834E, one chain of several) above, with E833R, E834R, R868E counted along it

Mre11;Rad50 full-length = Mre11;Rad50 full-length (Pyrococcus furiosus;Pyrococcus furiosus, UniProt Q8U1N9;P58301 1-426;1-882, |); experiment: fluorescence polarization
Chain of Mre11;Rad50 full-length (P58301 whole entry, one chain of several): as the sequence (P58301 whole entry R833E/R834E, one chain of several) above, with E833R, E834R counted along it

[6] = target: Mre11 R160E;Rad50 full-length (Pyrococcus furiosus;Pyrococcus furiosus, UniProt Q8U1N9;P58301 1-426;1-882, R160E|); experiment: fluorescence polarization
Chain of Mre11 R160E;Rad50 full-length (P58301 whole entry, stated change not applied, one chain of several): as the sequence (P58301 whole entry R833E/R834E, one chain of several) above, with E833R, E834R counted along it

Mre11;Rad50 K172E = Mre11;Rad50 K172E (Pyrococcus furiosus;Pyrococcus furiosus, UniProt Q8U1N9;P58301 1-426;1-882, |K172E); experiment: fluorescence polarization
Chain of Mre11;Rad50 K172E (P58301 whole entry K172E, one chain of several): as the sequence (P58301 whole entry R833E/R834E, one chain of several) above, with K172E, E833R, E834R counted along it

Mre11;Rad50NBD [7] = target: T1, Mre11;Rad50NBD; experiment: NMR CSP

T1 sequence (P58301 1-195, chain 1 of 2): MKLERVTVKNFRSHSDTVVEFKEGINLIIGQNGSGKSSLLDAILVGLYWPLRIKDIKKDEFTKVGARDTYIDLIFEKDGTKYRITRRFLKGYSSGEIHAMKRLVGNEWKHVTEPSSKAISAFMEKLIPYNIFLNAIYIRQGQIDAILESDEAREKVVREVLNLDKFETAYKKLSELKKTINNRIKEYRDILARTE
T1 sequence (P58301 709-882, chain 2 of 2): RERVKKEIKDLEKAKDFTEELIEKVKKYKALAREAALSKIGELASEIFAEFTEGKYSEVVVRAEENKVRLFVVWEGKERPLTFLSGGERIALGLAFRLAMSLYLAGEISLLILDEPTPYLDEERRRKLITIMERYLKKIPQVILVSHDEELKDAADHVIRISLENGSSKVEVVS
Chain of Mre11;Rad50 S115E/S116E (P58301 whole entry S115E/S116E, one chain of several): as the sequence (P58301 whole entry R833E/R834E, one chain of several) above, with S115E, S116E, E833R, E834R counted along it

B1: hairpin 2S (structured_DNA)
DNA: CACGCACGTAGAAGCTTTTGCTTCTACGTGCGTGAC
modifications: phosphorothioate at nt 2
binding result (Mre11;Rad50NBD [1]): binds

B2: hairpin 24S (structured_DNA)
DNA: CACGCACGTAGAAGCTTTTGCTTCTACGTGCGTGAC
modifications: phosphorothioate at nt 24
binding result (Mre11;Rad50NBD [1]): binds

B3: hairpin 30S (structured_DNA)
DNA: CACGCACGTAGAAGCTTTTGCTTCTACGTGCGTGAC
modifications: phosphorothioate at nt 30
binding result (Mre11;Rad50NBD [1]): binds

B4: 15-bp hairpin DNA (structured_DNA)
DNA: CACGCACGTAGAAGCTTTTGCTTCTACGTGCGTGAC
Kd (Mre11;Rad50NBD [2]): ~5400 nM

B5: hairpin 6S (structured_DNA)
DNA: CACGCACGTAGAAGCTTTTGCTTCTACGTGCGTGAC
modifications: phosphorothioate at nt 6
binding result (Mre11;Rad50NBD [1]): binds

B6: hairpin 17S (structured_DNA)
DNA: CACGCACGTAGAAGCTTTTGCTTCTACGTGCGTGAC
modifications: phosphorothioate at nt 17
binding result (Mre11;Rad50NBD [1]): binds

B7: hairpin 36S (structured_DNA)
DNA: CACGCACGTAGAAGCTTTTGCTTCTACGTGCGTGAC
modifications: phosphorothioate at nt 36
binding result (Mre11;Rad50NBD [1]): binds

B8: 40-mer dsDNA (dsDNA)
DNA 1: GTGTTCGGACTCTGCCTCAAGACGGTAGTCAACGTGCTTG
DNA 2: CAAGCACGTTGACTACCGTCTTGAGGCAGAGTCCGAACAC
Kd (Mre11;Rad50 S115E/S116E): 580 ± 60 nM | Kd (Mre11;Rad50 R833E/R834E): 1080 ± 130 nM | Kd [3]: 2120 ± 420 nM | Kd [4]: 1070 ± 110 nM | Kd [5]: 710 ± 50 nM | Kd (Mre11;Rad50 R868E): 750 ± 70 nM | Kd (Mre11;Rad50 full-length): 590 ± 50 nM | Kd [6]: 960 ± 60 nM | Kd (Mre11;Rad50 K172E): 580 ± 30 nM

B9: 50-bp dsDNA (dsDNA)
DNA 1: CTGCAGGGTTTTTGTTCCAGTCTGTAGCACTGTGTAAGACAGGCCAGATG
DNA 2: CATCTGGCCTGTCTTACACAGTGCTACAGACTGGAACAAAAACCCTGCAG
binding result (Mre11;Rad50NBD [7]): binds
